According to patent publication US20180037644A1 (Pfizer, published 2018):
Numbering of substitutions follows the chain as printed. Where two headings read alike, the source gives them in different places.

Tests used:
Assay in all cases: cell-based or functional assay
[1] = target: T1, human IL-33 (mm2) (human, UniProt O95760 112-270)
T1 chain: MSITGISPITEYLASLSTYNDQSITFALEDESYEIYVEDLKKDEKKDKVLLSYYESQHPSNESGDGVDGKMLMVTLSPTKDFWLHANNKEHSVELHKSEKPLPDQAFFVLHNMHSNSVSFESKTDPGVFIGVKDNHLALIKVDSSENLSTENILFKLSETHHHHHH

[2] = target: T2, cynomolgus monkey IL-33 (cys mut) (cynomolgus monkey)
T2 chain: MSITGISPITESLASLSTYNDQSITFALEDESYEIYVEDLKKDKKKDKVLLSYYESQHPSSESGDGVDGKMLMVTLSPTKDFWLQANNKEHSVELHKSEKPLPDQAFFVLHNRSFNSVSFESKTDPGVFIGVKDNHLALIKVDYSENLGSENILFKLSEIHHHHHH

[3] = target: T3, human IL-33 WT (R&D) (human, UniProt O95760 112-270)
T3 sequence: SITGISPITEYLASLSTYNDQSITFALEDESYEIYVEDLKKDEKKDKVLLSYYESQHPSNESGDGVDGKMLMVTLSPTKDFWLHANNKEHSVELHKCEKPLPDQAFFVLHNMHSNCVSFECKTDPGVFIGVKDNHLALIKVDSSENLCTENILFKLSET

[4] = target: T1, human IL-33 (mm2)
[5] = target: T4, native human IL-33 from human lung fibroblast (HFL-1) lysate (human, UniProt O95760 1-270, limits assumed)
T4 sequence (looked up): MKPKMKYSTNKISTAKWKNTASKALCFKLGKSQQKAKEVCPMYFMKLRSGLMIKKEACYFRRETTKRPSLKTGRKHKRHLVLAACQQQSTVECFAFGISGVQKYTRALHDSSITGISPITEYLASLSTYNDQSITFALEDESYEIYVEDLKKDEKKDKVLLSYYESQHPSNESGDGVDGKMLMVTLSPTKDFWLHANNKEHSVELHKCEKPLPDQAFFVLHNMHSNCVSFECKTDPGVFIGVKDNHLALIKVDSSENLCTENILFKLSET

[6] = target: T1, human IL-33 (mm2)
[7] = target: T2, cynomolgus monkey IL-33 (cys mut)
[8] = target: T1, human IL-33 (mm2)
[9] = target: T2, cynomolgus monkey IL-33 (cys mut)
[10] = target: T1, human IL-33 (mm2)
[11] = target: T5, wild-type cynomolgus monkey IL-33 (cynomolgus monkey)
T5 chain: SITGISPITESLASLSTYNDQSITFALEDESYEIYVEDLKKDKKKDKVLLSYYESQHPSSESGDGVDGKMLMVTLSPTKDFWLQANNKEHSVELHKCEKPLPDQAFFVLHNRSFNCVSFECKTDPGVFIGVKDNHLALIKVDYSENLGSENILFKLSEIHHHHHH

[12] = target: T3, human IL-33 WT (R&D); remark: listed apart in the source
[13] = target: T1, human IL-33 (mm2)
[14] = target: T2, cynomolgus monkey IL-33 (cys mut)
[15] = target: T5, wild-type cynomolgus monkey IL-33
[16] = target: T3, human IL-33 WT (R&D); remark: listed apart in the source
[17] = target: T1, human IL-33 (mm2)
[18] = target: T2, cynomolgus monkey IL-33 (cys mut)

B1: IL33-55 (antibody, human IgG1, kappa, V domains shown)
VH: EVQLVESGGGLVQPGGSLRLSCAASGFTFSSYWMYWVRQAPGKGLEWVASITPNGGDTYYPDSVKGRFTISRDNAKNSLYLQMNSLRAEDTAVYYCARGHYYYTSYSLGYWGQGTLVTVSS
VL: DIQMTQSPSSLSASVGDRVTITCKASQNINKHLDWYQQKPGKAPKLLIYFTNNLQTGVPSRFSGSGSGTDFTLTISSLQPEDFATYYCFQYNNGWTFGGGTKVEIKR
IC50, HEK293 ST2 NFkB [1]: 0.084 nM | IC50, HEK293 ST2 NFkB [2]: 0.19 nM

B2: IL33-68 (antibody, human IgG1, kappa, V domains shown)
VH: B1 VH with D57N, S105A
VL: B1 VL
IC50, HEK293 ST2 NFkB [1]: 0.046 nM | IC50, HEK293 ST2 NFkB [2]: 0.062 nM

B3: IL33-136 (antibody, human IgG1, kappa, V domains shown)
VH: B1 VH with D57E
VL: B1 VL with N93Q
IC50, HEK293 ST2 NFkB WT IL-33 [3]: 0.037 nM | IC50, whole blood IFNγ [4]: 0.098 nM

B4: IL33-56 (antibody, human IgG1, kappa, V domains shown)
VH: B1 VH with D57E
VL: B1 VL
IC50, HEK293 ST2 NFkB [1]: 0.053 nM | IC50, HEK293 ST2 NFkB [2]: 0.104 nM

B5: rat 30A1 (30A1 hybridoma) (antibody, V domains shown)
VH: QVNLLQSGATLVKPGASMKMSCKASGYSFTDYWVSWVKQSHGKSLEWIGEIYPNSGANNFNKEFKDKATLTVDKSTSTAYMELTRLTSEDSAVYYCTRGPYYYSSQIIFAYWGQGTLVTVSS
VL: IIVMTQSPKSMSISVGDRVTMNCKASQNVGNNIAWYRQKPGQSPELLIYYASNRYTGVPDRFTGGGYGTDFTLTINSVQAEDAAFYYCQRIYNSPPTFGGGTKVELK
% inhibition 0.1 nM Ab, HEK293 ST2 NFkB [5]: 35.4% | % inhibition 1 nM Ab, HEK293 ST2 NFkB [5]: 77.3% | % inhibition 10 nM Ab, HEK293 ST2 NFkB [5]: 108% | IC50, HEK293 ST2 NFkB [6]: 0.665 nM | IC50, HEK293 ST2 NFkB [7]: 2.95 nM | IC50, HEK293 ST2 NFkB [8]: 0.47 nM | IC50, HEK293 ST2 NFkB [9]: 0.14 nM

B6: rat 30B11 (30B11 hybridoma) (antibody, V domains shown)
VH: QVKLLQSGAALVKPGASVKMSCATSGFSFTDYWVSWVKQSHGKGLEWIGEIYPNSGADNFNENFKGKATLTVDKSTSTAYMELSRLTSEDSAIYYCTRGPYYYSTQIIFAYWGQGTLVTVSS
VL: B5 VL with I1N, I33L, R37Q, E45K, K107R
% inhibition 0.1 nM Ab, HEK293 ST2 NFkB [5]: 93.5% | % inhibition 1 nM Ab, HEK293 ST2 NFkB [5]: 108% | % inhibition 10 nM Ab, HEK293 ST2 NFkB [5]: 113% | IC50, HEK293 ST2 NFkB [6]: 0.056 nM | IC50, HEK293 ST2 NFkB [7]: 0.2 nM | IC50, HEK293 ST2 NFkB [8]: 0.038 nM | IC50, HEK293 ST2 NFkB [9]: 0.084 nM

B7: 30B11 CDR graft (antibody, human IgG1, kappa, V domains shown)
VH: EVQLVESGGGLVQPGGSLRLSCAASGFTFTDYWVSWVRQAPGKGLEWVAEIYPNSGADNFNENFKGRFTISRDNAKNSLYLQMNSLRAEDTAVYYCARGPYYYSTQIIFAYWGQGTLVTVSS
VL: DIQMTQSPSSLSASVGDRVTITCKASQNVGNNLAWYQQKPGKAPKLLIYYASNRYTGVPSRFSGSGSGTDFTLTISSLQPEDFATYYCQRIYNSPPTFGGGTKVEIKR
IC50, HEK293 ST2 NFkB [10]: 0.368 nM

B8: 30B11 CDR graft_R71V (antibody, human IgG1, kappa, V domains shown)
VH: B7 VH with R72V
VL: B7 VL
IC50, HEK293 ST2 NFkB [10]: 0.278 nM

B9: IL33-312 (antibody, human IgG1, lambda, V domains shown)
VH: EVQLLESGGGLVQPGGSLRLSCAASGFTFSSYAMSWVRQAPGKGLEWVSGISAIDQSTYYADSVKGRFTISRDNSKNTLYLQMNSLRAEDTAVYYCARQKFMQLWGGGLRYPFGYWGQGTMVTVSS
VL: SYVLTQPPSVSVSPGQTASITCSGEGMGDKYAAWYQQKPGQSPVLVIYRDTKRPSGIPERFSGSNSGNTATLTISGTQAMDEADYYCGVIQDNTGVFGGGTKLTVLG
Cynomolgus monkey:human IC50 ratio: wild-type IL-33 [11]: 5.4 | IC50, HEK293 ST2 NFkB [11]: 0.043 nM | IC50, HEK293 ST2 NFkB [12]: 0.008 nM | IC50, HEK293 ST2 NFkB [13]: 3 pM | Cynomolgus monkey:human IC50 ratio: cysteine mutant IL-33 [14]: 1.1 | IC50, HEK293 ST2 NFkB [14]: 0.003 nM

B10: IL33-313 (antibody, human IgG1, lambda, V domains shown)
VH: EVQLLESGGGLVQPGGSLRLSCAASGFTFSSYAMSWVRQAPGKGLEWVSGIADDFTSTYYADPVKGRFTISRDNSKNTLYLQMNSLRAEDTAVYYCARDLWMMNYAGGLRYPFGYWGQGTMVTVSS
VL: B9 VL with G26R, I90L, Q91K, D92Q, N93D
Cynomolgus monkey:human IC50 ratio: wild-type IL-33 [11]: 528 | IC50, HEK293 ST2 NFkB [11]: 14.1 nM | IC50, HEK293 ST2 NFkB [12]: 0.027 nM | IC50, HEK293 ST2 NFkB [13]: 6 pM | Cynomolgus monkey:human IC50 ratio: cysteine mutant IL-33 [14]: 206 | IC50, HEK293 ST2 NFkB [14]: 1.2 nM

B11: rat 7E8 (7E8 hybridoma) (antibody, V domains shown)
VH: EVQLVETGGGLVQPGRSLKLSCKTSGFTFSSYWMYWIRQAPGKGLEWVSSITPNGGNTYYPDSVKGRFTISRDNAENTIYLQMSSLRSEDTATYFCAKGHYYYTSYSLGYWGQGSLVTVSS
VL: EIQMTQSPSVLSASVGDRVTLSCKASQNINKHLDWYQQKLGEAPKLLIYFTNNLQTGIPSRFSGSGSGTDCTLTINSLQPGDVATYFCFQYNNGWTFGGGTKLELD
% inhibition 0.1 nM Ab, HEK293 ST2 NFkB [5]: 112% | % inhibition 1 nM Ab, HEK293 ST2 NFkB [5]: 110% | % inhibition 10 nM Ab, HEK293 ST2 NFkB [5]: 113% | IC50, HEK293 ST2 NFkB [10]: 0.024 nM | IC50, HEK293 ST2 NFkB [6]: 0.018 nM | IC50, HEK293 ST2 NFkB [7]: 0.21 nM | IC50, HEK293 ST2 NFkB [8]: 0.043 nM | IC50, HEK293 ST2 NFkB [9]: 0.032 nM

B12: rat 9B3 (9B3 hybridoma) (antibody, V domains shown)
VH: EVQLVETGGGLVQPGRSLKLSCVASGFTFSNYWMYWIRQAPGMGLEWVSSINNDGGNTYYLDSVKGRFTISRNNAENTVYLQMNSLRSEDTATYYCAKGHYSYSSYSFSYWGQGTLVTVSS
VL: B11 VL with E1D, Q27H, Y36C, L40V, C71Y, N76S, G81E, N93S, D106K
% inhibition 0.1 nM Ab, HEK293 ST2 NFkB [5]: 55.1% | % inhibition 1 nM Ab, HEK293 ST2 NFkB [5]: 99.2% | % inhibition 10 nM Ab, HEK293 ST2 NFkB [5]: 108% | IC50, HEK293 ST2 NFkB [6]: 0.076 nM | % inhibition at 20 nM, HEK293 ST2 NFkB [7]: 23% | IC50, HEK293 ST2 NFkB [8]: 0.17 nM | IC50, HEK293 ST2 NFkB [9]: 2.72 nM

B13: IL33-265 (antibody, human IgG1, kappa, V domains shown)
VH: EVQLVESGGNLEQPGGSLRLSCTASGFTFSRSAMNWVRRAPGKGLEWVSGISGSGGRTYYADSVKGRFTISRDNSKNTLYLQMNSLSAEDTAAYYCAKDSYTTSWYGGMDVWGHGTTVTVSS
VL: DIQMTQSPSSVSASVGDRVTITCRASQGIFSWLAWYQQKPGKAPKLLIYAASSLQSGVPSRFSGSGSGTDFTLTISSLQPEDFAIYYCQQANSVPITFGQGTRLEIKR
Cynomolgus monkey:human IC50 ratio: wild-type IL-33 [15]: 256 | IC50, HEK293 ST2 NFkB (DTT-pretreated IL-33) [15]: 12.7 nM | IC50, HEK293 ST2 NFkB (DTT-pretreated IL-33) [16]: 0.05 nM | IC50, HEK293 ST2 NFkB [17]: 0.014 nM | Cynomolgus monkey:human IC50 ratio: cysteine mutant IL-33 [18]: 109 | IC50, HEK293 ST2 NFkB [18]: 1.56 nM
